Drawing on US20260265358A1 (BYOMASS, published 2026), this text covers Kd, koff and kon for 17 molecules.

Residue numbers refer to the chain shown, from its start. “And” between values parts separate entries of the source, which are not always exact repeats. Identical values can stand only once.

For one experiment, the target named is T1, Human Activin A Fc (human, UniProt P03970 309-424 (pig entry)).
T1 construct: also called human Activin A-Fc fusion; human Activin A-Fc antigen; not shown: Fc part
T1 sequence: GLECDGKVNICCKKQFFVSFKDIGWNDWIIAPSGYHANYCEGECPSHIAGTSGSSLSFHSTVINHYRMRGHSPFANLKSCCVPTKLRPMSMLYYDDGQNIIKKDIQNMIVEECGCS
Nature of the experiment: Octet BLI, Fab, monovalent.

The target in experiment [1] is T2, biotinylated Human Activin A (human, UniProt P03970 309-424 (pig entry), biotinylated (EZ-Link Sulfo-NHS-Biotinylation Kit)).
T2 sequence: T1 sequence
The experiment is described as follows: SPR (Biacore 8K), antigen captured, Fab analyte. As for the experimental part:
Kinetic analysis was conducted at 25° C. in HBS-EP+ running buffer (10 mM HEPES pH 7.4, 150 mM NaCl, 3 mM EDTA, 0.05% Surfactant P20) using a Biacore 8K optical biosensor (Cytiva, Marlborough, MA). The sample compartment was maintained at 10° C. for the duration of the experiment. The Biacore 8K can analyze up to 8 separate interactions in a single cycle.
Each experiment cycle began with an injection (300 s at 2 μL/min) overflow cells 1 and 2 of a 1:100 solution of biotin CAPture reagent (Cytiva) in running buffer. This was followed by an injection (45 s at 10.0 μL/min) of biotinylated human ACTIVIN A (5 nM) overflow cell 2. Upon capture of ACTIVIN A to the sensor surface, a single concentration of Fab ranging from 0.111-81.0 nM was injected (300 s at 30 μL/min) overflow cells 1 and 2. The dissociation of the antibodies were monitored for 3420 s. Finally, an injection (120 s at 10 μL/min) of regeneration solution (6 M Guanidine-HCl in 0.25 M NaOH) overflow cells 1 and 2 prepared the sensor surface for another cycle. Several blank buffer samples were injected (300 s at 30 μL/min) overflow cells 1 and 2 throughout the duration of the experiment and used for reference surface subtraction—each were monitored for the same amount of dissociation time (3420 s) and regenerated under the same conditions as those for the Fab sample injections.
The anti-Activin antibodies identified in Example 1 were characterized. First, binding kinetics of the anti-Activin antibodies was assessed with a Surface Plasmon Resonance assay (Biacore).
A general note: In SPR one partner is held on a chip, and binding of the other changes the refractive index at the surface.

B1: Fab of anti-Activin A antibody Clone C (Fab, V domains shown)
VH: QVQLVQSGAEVKKPGASVKVSCKASGYTFPGYHMHWVRQAPGQGLEWMGVINPSSGDTNYAQKFQGRVTMTRDTSISTAYMELSRLRSDDTAVYYCARARDIAALGLGAFDYWGQGTLVTVSS
VL: EIVLTQSPGTLSLSPGERATLSCRASQSVSSSYLAWYQQKPGQAPRLLIYGASSRAGGIPDRFSGSGSGTDFTLTISRLEPEDFAVYYCQQYVAYPRTFGGGTKVEIK
notes: Fab format; only VH and VL are tied to the clone; also called Fab of Clone C
A word on the Kd: it is the free concentration of one partner at which half of the binding sites on the other are occupied at equilibrium, for simple one-to-one binding. A lower Kd goes with tighter binding. As usually defined, the koff is a measure of how fast the partners let go of each other. The low end stands for slow dissociation, the high end for fast dissociation. On to B1, for which binding with Human Activin A Fc was characterised by a dissociation constant (Kd) of 0.229 nM. Also, in experiment [1], the Kd was 0.0334 nM and 0.0179 nM; the koff is 4.52e-05 s⁻¹ and 2.74e-05 s⁻¹.

B2: Fab of anti-Activin A antibody Clone G (Fab, V domains shown)
VH: QVQLVQSGAEVKKPGASVKVSCKASGYTFTSYYIHWVRQAPGQGLEWMGAIYAYSGDTNYAQKLQGRVTMTTDTSTSTAYMELRSLRSDDTAVYYCARARDIAAAGLGAFDYWGQGTLVTVSS
VL: B1 VL with S30R, G57T, V93S, A94N
notes: Fab format; only VH and VL are tied to the clone; also called Clone G Fab
As a reminder, the kon is the rate constant with which the complex forms. Regarding B2, in the experiment with Human Activin A Fc, the affinity, expressed as Kd, was 1.09 nM. In addition, in experiment [1], binding was put at a Kd of 0.0849 nM, the koff is 0.000124 s⁻¹ and the kon turned out to be 1.46e+06 M⁻¹ s⁻¹.

B3: Fab of anti-Activin A antibody Clone I (Fab, V domains shown)
VH: QVQLVQSGAEVKKPGSSVKVSCKASGGTFSNYAISWVRQAPGQGLEWMGYIIPFFGTANYAQKFQGRVTITADESTSTAYMELSSLRSEDTAVYYCARGGSGYSTSWGSSLYWGQGTLVTVSS
VL: B1 VL with S54Y, G57T, Q90L, Y92S, V93G, A94V, Y95F, R97Y
notes: Fab format; only VH and VL are tied to the clone; also called Clone I Fab
B3 displayed a Kd with Human Activin A Fc of 0.857 nM. In experiment [1], this molecule yielded a Kd of 0.0616 nM, a koff of 7.38e-05 s⁻¹ and a kon of 1.2e+06 M⁻¹ s⁻¹.

B4: Fab of anti-Activin A antibody Clone A (Fab, V domains shown)
VH: B2 VH with S31G, I34M, A50S, Y52N, A53P, Y54S, D57G, L64F
VL: B1 VL with S30R, G57T, A94S
notes: Fab format; only VH and VL are tied to the clone; also called Clone A Fab
For the molecule B4, binding in the experiment with Human Activin A Fc was characterised by a dissociation constant (Kd) of 2.02 nM.

B5: Fab of anti-Activin A antibody Clone E (Fab, V domains shown)
VH: B1 VH with P30H, H33N, V50S, S54Y, D57Y, N59I, L105A
VL: B1 VL with S30R, G57T, A94S
notes: Fab format; only VH and VL are tied to the clone; also called Clone E Fab
B5 yielded a Kd with Human Activin A Fc of 0.79 nM. In experiment [1], the Kd stood at 0.0779 nM, the koff was 0.000174 s⁻¹ and the kon is 2.23e+06 M⁻¹ s⁻¹.

B6: Fab of anti-Activin A antibody Clone D (Fab, V domains shown)
VH: B1 VH with P30F, H33S
VL: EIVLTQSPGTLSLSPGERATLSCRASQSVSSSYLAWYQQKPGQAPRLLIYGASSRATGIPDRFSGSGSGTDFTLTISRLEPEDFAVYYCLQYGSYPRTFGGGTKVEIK
notes: Fab format; only VH and VL are tied to the clone; also called Fab of Clone D
For the molecule B6, the Kd in the experiment with Human Activin A Fc amounted to 0.538 nM. In experiment [1], the Kd is 0.00986 nM and 0.00813 nM; the koff is 3.02e-05 s⁻¹ and 2.16e-05 s⁻¹; the kon was 3.06e+06 M⁻¹ s⁻¹ and 2.66e+06 M⁻¹ s⁻¹.

B7: Fab of anti-Activin A antibody Clone H (Fab, V domains shown)
VH: B2 VH with S31G, Y33H, A50H, Y52S, D57T
VL: B1 VL with S30R, G57T, V93S, A94N
notes: Fab format; only VH and VL are tied to the clone; also called Clone H Fab
In turn, B7 had a Kd in the experiment with Human Activin A Fc of 1.86 nM. In experiment [1], this molecule gave a Kd of 0.96 nM, a koff of 0.000371 s⁻¹ and a kon of 386000 M⁻¹ s⁻¹.

B8: Fab of anti-Activin A antibody Clone J (Fab, V domains shown)
VH: B3 VH with Q1E, N31L, Y50G, F54Y
VL: B1 VL with S53F, G57T, Y92S, V93G, A94V, Y95F, R97Y
notes: Fab format; only VH and VL are tied to the clone; also called Clone J Fab
For the molecule B8, the Kd in experiment [1] came out at 0.118 nM.

B9: Fab of anti-Activin A antibody Clone M (Fab, V domains shown)
VH: QLQLQESGPGLVKPSETLSLTCTVSGGSISSSDYYWGWIRQPPGKGLEWIGSIYYPANTYYNPSLKSRVTISVDTSKNQFSLKLSSVTAADTAVYYCARGYWNYGMDVWGQGTTVTVSS
VL: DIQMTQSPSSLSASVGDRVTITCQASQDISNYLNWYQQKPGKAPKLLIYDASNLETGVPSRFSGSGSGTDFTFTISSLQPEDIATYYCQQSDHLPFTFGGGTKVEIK
notes: Fab format; only VH and VL are tied to the clone; also called Clone M Fab
B9 gave a Kd in the experiment with Human Activin A Fc of 4.53 nM.

B10: Fab of anti-Activin A antibody Clone N (Fab, V domains shown)
VH: B9 VH with N58S
VL: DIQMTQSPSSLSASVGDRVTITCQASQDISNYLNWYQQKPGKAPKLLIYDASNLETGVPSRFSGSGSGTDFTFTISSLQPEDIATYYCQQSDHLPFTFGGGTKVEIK
notes: Fab format; only VH and VL are tied to the clone; also called Clone N Fab
In the case of B10, the Kd with Human Activin A Fc is 4.85 nM.

B11: Fab of anti-Activin A antibody Clone P (Fab, V domains shown)
VH: QVQLVQSGAEVKKPGSSVKVSCKASGGTFDDYAISWVRQAPGQGLEWMGGIIPRFGIANYAQKFQGRVTITADESTSTAYMELSSLRSEDTAVYYCARPPSSGSDWGQGTLVTVSS
VL: DIQMTQSPSSVSASVGDRVTITCRASQGIDSWLAWYQQKPGKAPKLLIYAASSLQSGVPSRFSGSGSGTDFTLTISSLQPEDFATYYCQQVHSFPITFGGGTKVEIK
notes: Fab format; only VH and VL are tied to the clone; also called Clone P Fab
B11: in the experiment with Human Activin A Fc, the Kd is 1.53 nM.

B12: Fab of anti-Activin A antibody Clone K (Fab, V domains shown)
VH: QVQLVQSGAEVKKPGSSVKVSCKASGGTSSSYAISWVRQAPGQGLEWMGYIIPAFGTANYAQKFQGRVTITADESTSTAYMELSSLRSEDTAVYYCARPVRTYPLGKYFYHWGQGTLVTVSS
VL: EIVLTQSPATLSLSPGERATLSCRASQSVSSYLAWYQQKPGQAPRLLIYDASNRATGIPARFSGSGSGTDFTLTISSLEPEDFAVYYCQQDSIFPPYTFGGGTKVEIK
notes: Fab format; only VH and VL are tied to the clone; also called Clone K Fab
In turn, B12 yielded a Kd in the experiment with Human Activin A Fc of 0.925 nM. In addition, in experiment [1], the Kd was found to be 0.0367 nM, the koff was 0.000119 s⁻¹ and the kon came to 3.25e+06 M⁻¹ s⁻¹.

B13: Fab of anti-Activin A antibody Clone F (Fab, V domains shown)
VH: B2 VH with S31G, Y33H, A40V, A50V, Y52S, A105L
VL: EIVLTQSPATLSVSPGERATLSCRASQSVSSNLAWYQQKPGQAPRLLIYGASDRATGIPARFSGSGSGTEFTLTISSLQSEDFAVYYCIQYSNYPRTFGGGTKVEIK
notes: Fab format; only VH and VL are tied to the clone; also called Clone F Fab
On to B13, for which, in the experiment with Human Activin A Fc, the Kd was 0.419 nM. Moreover, in experiment [1], the affinity, expressed as Kd, was 0.0431 nM; the koff came to 7.26e-05 s⁻¹; the kon came to 1.68e+06 M⁻¹ s⁻¹.

B14: Fab of anti-Activin A antibody Clone L (Fab, V domains shown)
VH: QVQLQESGPGLVKPSETLSLTCAVSGYSISSGYYWGWIRQPPGKGLEWIGSIYHSGSTYYNPSLKSRVTISVDTSKNQFSLKLSSVTAADTAVYYCAREAGSGYWYLSVYGMDVWGQGTTVTVSS
VL: B13 VL with D53T, I89Q, Y91S, S92D, N93D, Y94W, R96W
notes: Fab format; only VH and VL are tied to the clone; also called Clone L Fab
Consider B14, for which the Kd with Human Activin A Fc turned out to be 4.14 nM.

B15: Fab of anti-Activin A antibody Clone O (Fab, V domains shown)
VH: QVQLVQSGAEVKKPGSSVKVSCKASGGTFSNYDINWVRQAPGQGLEWMGGIIPVFGTAAYAQKFQGRVTITADESTSTAYMELSSLRSEDTAVYYCAREARDGYRYAFQHWGQGTLVTVSS
VL: B13 VL with L4M, D53T, I89Q, S92N, Y94W, R96I
notes: Fab format; only VH and VL are tied to the clone; also called Clone O Fab
For the molecule B15, the Kd with Human Activin A Fc is 1.92 nM.

B16: Fab of anti-Activin A antibody Clone Q (Fab, V domains shown)
VH: QVQLVQSGAEVKKPGSSVKVSCKASGGSFSPYTWSWVRQAPGQGLEWMGGIIPISGTANTAQKFQGRVTITADESTSTAYMELSSLRSEDTAVYYCARGGPLSGWRASYYYWGQGTLVTVSS
VL: not shown
notes: Fab format; only VH and VL are tied to the clone; also called Clone Q Fab
On to B16, for which, in the experiment with Human Activin A Fc, the affinity, expressed as Kd, was 1.75 nM. Also, in experiment [1], the Kd amounted to 0.24 nM, the koff was 0.000175 s⁻¹ and the kon was 728000 M⁻¹ s⁻¹.

B17: Fab of anti-Activin A antibody Clone R (Fab, V domains shown)
VH: B16 VH with W34I, P53L, I54T, T60Y
VL: not shown
notes: Fab format; only VH and VL are tied to the clone; also called Clone R Fab
Regarding B17, in the experiment with Human Activin A Fc, the affinity, expressed as Kd, was 2.9 nM.
